{"source": "IntAct's records for PubMed 21808041", "parents": {"B1": {"name": "Non-structural protein 1 (Influenza B virus (strain B/Lee/1940)), P03502 (parent)", "chain": "MADNMTTTQIEVGPGATNATINFEAGILECYERFSWQRALDYPGQDRLHRLKRKLESRIKTHNKSEPENKRMSLEERKAIGVKMMKVLLFMDPSAGIEGFEPYCVKNPSTSKCPNYDWTDYPPTPGKYLDDIEEEPENVDHPIEVVLRDMNNKDARQKIKDEVNTQKEGKFRLTIKRDIRNVLSLRVLVNGTFLKHPNGDKSLSTLHRLNAYDQNGGLVAKLVATDDRTVEDEKDGHRILNSLFERFDEGHSKPIRAAETAVGVLSQFGQEHRLSPEEGDN"}}, "data": [{"variants_of": "B1", "settings": "with isg15_human ISG15, P05161", "values": [{"variant": "W36A;Q37A", "effect of a mutation on the interaction": "disrupting interaction strength"}, {"variant": "M91A;F100A", "effect of a mutation on the interaction": "decreasing interaction strength"}]}]}
